In the test the target is HA-NEK7 (mouse NIMA-related kinase 7, wild type) (mouse, UniProt Q9ES74 1-302). Description: BLI.
Sequence of HA-NEK7 (mouse NIMA-related kinase 7, wild type) (Q9ES74 whole entry): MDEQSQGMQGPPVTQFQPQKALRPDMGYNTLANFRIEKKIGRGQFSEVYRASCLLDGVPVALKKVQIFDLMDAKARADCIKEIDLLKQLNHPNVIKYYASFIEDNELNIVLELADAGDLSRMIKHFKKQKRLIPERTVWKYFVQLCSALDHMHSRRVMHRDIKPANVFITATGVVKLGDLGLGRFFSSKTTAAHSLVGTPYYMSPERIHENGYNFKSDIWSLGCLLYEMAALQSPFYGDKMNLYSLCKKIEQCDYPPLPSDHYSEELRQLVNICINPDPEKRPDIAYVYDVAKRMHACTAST

One may read the Kd as the equilibrium constant for the complex coming apart. Low readings indicate higher affinity, high ones lower affinity. Take KLVALKTNGDGNCLMHAACQYMWGVQDTD [A20-derived peptide P-II]: the Kd came out at 197 µM.
